Molecular target: C1q
Test: C1q binding assay, format not stated

rituximab (antibody)
EC50: 0.9 µg/mL
